Measured values as given in patent publication US20200048332A1 (BIOVERATIV USA, published 2020).
Positions count from the first letter of the chain named.

T1: activated C1s (human, UniProt P09871 16-688)
T1 sequence: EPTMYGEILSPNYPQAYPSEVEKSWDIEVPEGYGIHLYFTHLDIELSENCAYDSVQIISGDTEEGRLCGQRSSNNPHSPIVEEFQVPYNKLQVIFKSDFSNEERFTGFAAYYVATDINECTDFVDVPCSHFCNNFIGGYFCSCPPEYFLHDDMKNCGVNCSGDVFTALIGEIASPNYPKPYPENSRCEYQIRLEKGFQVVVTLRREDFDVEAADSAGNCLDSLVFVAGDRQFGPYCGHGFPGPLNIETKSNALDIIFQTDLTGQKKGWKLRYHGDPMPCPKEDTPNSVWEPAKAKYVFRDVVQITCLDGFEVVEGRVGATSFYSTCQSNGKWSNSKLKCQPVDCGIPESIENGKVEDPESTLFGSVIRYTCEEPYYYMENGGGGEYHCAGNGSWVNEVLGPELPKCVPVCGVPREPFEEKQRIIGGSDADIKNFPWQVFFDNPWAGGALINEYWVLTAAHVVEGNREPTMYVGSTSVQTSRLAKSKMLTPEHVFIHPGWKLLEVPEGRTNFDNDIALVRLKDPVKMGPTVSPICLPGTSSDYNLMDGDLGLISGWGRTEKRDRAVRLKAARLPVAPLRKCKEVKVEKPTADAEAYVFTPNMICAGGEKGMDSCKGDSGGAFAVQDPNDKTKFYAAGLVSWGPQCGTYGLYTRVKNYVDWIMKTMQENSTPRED

B1: murine anti-activated C1s antibody (antibody, V domains shown)
VH: EVQLQQSGAELVRPGASVKLSCTASGFNIKDDYIHWVKQRPEQGLEWIGRIDPADGHTKYAPKFQVKATITADTSSNTAYLQLSSLTSEDTAVYYCARYGYGREVFDYWGQGTTLTVSS
VL: DIVLTQSPASLAVSLGQRATISCKASQSVDYDGDSYMNWYQQKTGQPPKILIYDASNLESGIPARFSGSGSGTDFTLNIHPVEEEDAAIYYCQQSNEDPWTFGGGTKLEIK
B2: humanized VH3/Vk2 (antibody, V domains shown)
VH: QVQLVQSGAEVKKPGASVKLSCTASGFNIKDDYIHWVKQAPGQGLEWIGRIDPADGHTKYAPKFQVKVTITADTSTSTAYLELSSLRSEDTAVYYCARYGYGREVFDYWGQGTTVTVSS
VL: B1 VL with A9D, Q17E, T44P, N78T, H80S, P81S, V82L, E84P, A87F, L108V
B3: humanized VH1/Vk5 (antibody, V domains shown)
VH: B2 VH with Q1E, V11L, V68A, S77N, E82Q, R87T
VL: DIVLTQSPDSLAVSLGERATISCKASQSVDYDGDSYMNWYQQKPGQPPKLLIYDASNLESGIPARFSGSGSGTDFTLTISSLEPEDFAVYYCQQSNEDPWTFGGGTKVEIK
B4: humanized VH5/Vk2 (antibody, V domains shown)
VH: B2 VH with L20V, T23A, K38R, L81M
VL: B3 VL with L50I, V89I
B5: humanized VH4/Vk1 (antibody, V domains shown)
VH: B2 VH with L20V, K38R, L81M
VL: B3 VL with P44T, L50I, P84E, V89I
B6: humanized VH2/Vk1 (antibody, V domains shown)
VH: B2 VH with Q1E, V68A, S77N
VL: B3 VL with P44T, L50I, P84E, V89I
B7: humanized VH5/Vk5 (antibody, V domains shown)
VH: B2 VH with L20V, T23A, K38R, L81M
VL: B3 VL
B8: humanized VH2/Vk5 (antibody, V domains shown)
VH: B2 VH with Q1E, V68A, S77N
VL: B3 VL
B9: humanized VH4/Vk5 (antibody, V domains shown)
VH: B2 VH with L20V, K38R, L81M
VL: B3 VL
B10: humanized VH3/Vk5 (antibody, V domains shown)
VH: B2 VH
VL: B3 VL
B11: humanized VH1/Vk2 (antibody, V domains shown)
VH: B2 VH with Q1E, V11L, V68A, S77N, E82Q, R87T
VL: B3 VL with L50I, V89I
B12: humanized VH3/Vk1 (antibody, V domains shown)
VH: B2 VH
VL: B3 VL with P44T, L50I, P84E, V89I
B13: humanized VH5/Vk1 (antibody, V domains shown)
VH: B2 VH with L20V, T23A, K38R, L81M
VL: B3 VL with P44T, L50I, P84E, V89I
B14: humanized VH1/Vk1 (antibody, V domains shown)
VH: B2 VH with Q1E, V11L, V68A, S77N, E82Q, R87T
VL: B3 VL with P44T, L50I, P84E, V89I
B15: humanized VH4/Vk2 (antibody, V domains shown)
VH: B2 VH with L20V, K38R, L81M
VL: B3 VL with L50I, V89I
B16: VH3/VK2-Fc-sub4 (antibody, human IgG4 S228P, kappa, V domains shown)
VH: B2 VH
VL: DIVLTQSPDSLAVSLGERATISCKASQSVDYDGDSYMNWYQQKPGQPPKILIYDASNLESGIPARFSGSGSGTDFTLTISSLEPEDFAIYYCQQSNEDPWTFGGGTKVEIKR
notes: Humanized IgG4; also called TNT020; humanized anti-aC1s variant VH3/VK2-Fc-sub4

Each binder was assayed against T1, activated C1s (assay: cell-based or functional assay).

| IC50 of classical complement pathway inhibition ('Classical Pathway Inhibition', IC50 (M)) [M] | Binder |
| --- | --- |
| 1.06e-09 | B1 |
| 1.26e-09 | B2 |
| 1.26e-09 | B3 |
| 1.33e-09 | B4 |
| 1.35e-09 | B5 |
| 1.23e-09 | B6 |
| 1.33e-09 | B7 |
| 1.27e-09 | B8 |
| 1.54e-09 | B9 |
| 1.38e-09 | B10 |
| 1.14e-09 | B11 |
| 1.27e-09 | B12 |
| 1.08e-09 | B13 |
| 1.2e-09 | B14 |
| 1.31e-09 | B15 |

These binders were tested against T1, activated C1s (assay: method not stated; dissociation constant for active C1s).

| Kd [nM] | Binder |
| --- | --- |
| 1.53 | B16 |
